# Test: soluble on expression in E. coli; label from the status in PepcDB or PDB records
row,Sequence,soluble on expression in E. coli
1,MGSDKIHHHHHHMGKQQIWKNWWENHTCTPEHYYQPEQIDEVVEIIKSANLEQKQIKVIGSGRSWSDIPCTDGYMISLDKFNQVLDIDIEQKTVIVKSGIRIYQLVDILAKHGLALSSLGSICEQSIAGAISTGTHGNSLHQGGLASSILELELVNGIGEVIKCSKSENPDLFSAALIGLGAIGIITQVKIQCCNQFWLTETLQCWNIKDVLENLDTLKKNDYCRFWYTTTNKDAIVQTFSDSQILEKTGFIHFIKRIITQIFWFLWISWHDNPAEHDSQSFTRKDESQHILCYPRFFLKLYKLSFRMTKYCQNVLISEYGIPEEMASIAMNKILSLVDRGIIKGHLRFEVRFGAAEDVWLSTAYQRPTCYIQVLFEKKNFTSTQDQNDAFIQVENIIKNLAGRPHWAKDHLYTNDDLRSTYPRWQEFLQIRQQTDPQQCFTNSYLNKIFDDVRRTA,not soluble
2,RIRKEPPVYAAGSLEEQWYLEIVDKGSVSCPTCQAVGRKTIEGLKKHMENCKQEMFTCHHCGKQLRSLAGMKYHVMANHNSLP,soluble
3,MARKTTVAKVGSKGPGSTKKTIQAVRPTVRTQGAVTRSQAALRGHMGITDSSTSTSSSRIPKEKLKKKASSRSRSRSRSKSTRRSRSKSTRSRSRSRSRSRSSTRGKKRAPKKAVTTKAARSISPVKVKKTEAIKSRGSSKTARRVSAAHK,not soluble
4,MGSDKIHHHHHHMSLVRLQDVSVRFDNTQILREAFFRLEPRDRVGLIGKNGSGKTTMLQLILDRITPESGTVTVEPGTRIGYFSQFSELNGASTITDVLDGLFSEIKAVEAELASIDTAIAGDPAGAELDRLIARQAELFEDMDRLDGWDYPRRIDKVLTTLGFSDAHRVCAIDELSGGWRNRAALAKILLEDPDVLLLDEPTNFLDVAGVEWLESWFRDFKGAAIIVSHDRKFLDAVVTRIIEVENFHLHEYPGNFGEYIVQKQFRLKSLEQQFVHESELLAFEAEGIADRREAAKAASRGLGNQLAKIKKSRTPRPVDQIVTEIYGGLHVKDVLCRVEGLGKSYGDKALFTGLGFEIRRGNRIVVLGANGSGKSTLLKVLTGEEEADAGVVSWAKGPGFVSYNRMLEELDDADTVSHAVNALPDSLAFSATRKSVNRFLAMFQFSEADLKQKIGNLSGGQKARVAMAQCLLSGASVLLLDEPTNHLDLSSTQVMERALMHFPGAVVVVSHDRFFSEKIANRYLVFGADAALPGEVEVRAA,not soluble
5,MKMYADERREHIYSYIKSHKRATVKQLSDYLSVTEATVRSDLRRLESENKLTRTHGGAKVTENIGSKFNFSYRLTQKHGEKYKISKSALKKIKPQQCIMIDASSTTYELAKLLAETTMELTIITNGLENAVLLKENPHLTVLVVGGFVSQDSNAITGNIDSQILEMYHIDYFFLSANGFTLENGLTDFSLPEVQLKKQMVQESENVIALIDKSKFGVSSTLSFAKISDINEVITDEKPEHKWLKHVPFSVTVAQLEHHHHHH,soluble
6,MPSVKIGIIGAGSAVFSLRLVSDLCKTPGLSGSTVTLMDIDEERLDAILTIAKKYVEEVGADLKFEKTMNLDDVIIDADFVINTAMVGGHTYLEKVRQIGEKYGYYRGIDAQEFNMVSDYYTFSNYNQLKYFVDIARKIEKLSPKAWYLQAANPIFEGTTLVTRTVPIKAVGFCHGHYGVMEIVEKLGLEEEKVDWQVAGVNHGIWLNRFRYNGGNAYPLLDKWIEEKSKDWKPENPFNDQLSPAAIDMYRFYGVMPIGDTVRNSSWRYHRDLETKKKWYGEPWGGADSEIGWKWYQDTLGKVTEITKKVAKFIKENPSVRLSDLGSVLGKDLSEKQFVLEVEKILDPERKSGEQHIPFIDALLNDNKARFVVNIPNKGIIHGIDDDVVVEVPALVDKNGIHPEKIEPPLPDRVVKYYLRPRIMRMEMALEAFLTGDIRIIKELLYRDPRTKSDEQVEKVIEEILALPENEEMRKHYLKR,soluble

# From the DeepSol protein solubility set
